Article PMC6796840, “An H3K27me3 demethylase-HSFA2 regulatory loop orchestrates transgenerational thermomemory in Arabidopsis”

B1: SGIP1-HSE-P4 (dsDNA)
DNA 1: AGCCAGTGGCGATAAGCTCTGAAAAGTTTCTGTCGAAGTCTTATCGCCACTGGCT
DNA 2: AGCCAGTGGCGATAAGACTTCGACAGAAACTTTTCAGAGCTTATCGCCACTGGCT
B2: BRM-HSE-P3 (dsDNA)
DNA 1: AGCCAGTGGCGATAAGATTTTTATTTTTCGAGAAGCCATCTCACTTATCGCCACTGGCT
DNA 2: AGCCAGTGGCGATAAGTGAGATGGCTTCTCGAAAAATAAAAATCTTATCGCCACTGGCT
B3: REF6-HSE-P1 (dsDNA)
DNA 1: AGCCAGTGGCGATAAGCTACTAATTTCATGAACTACCAAAGACTCTTATCGCCACTGGCT
DNA 2: AGCCAGTGGCGATAAGAGTCTTTGGTAGTTCATGAAATTAGTAGCTTATCGCCACTGGCT
B4: BRM-HSE-P1 (dsDNA)
DNA 1: AGCCAGTGGCGATAAGAACAAATTTATTCAGGAATCAGAAACACTTATCGCCACTGGCT
DNA 2: AGCCAGTGGCGATAAGTGTTTCTGATTCCTGAATAAATTTGTTCTTATCGCCACTGGCT
B5: BRM-HSE-P2 (dsDNA)
DNA 1: AGCCAGTGGCGATAAGTTTTACTTGTTTCGGGAAAAAAAACTACTTATCGCCACTGGCT
DNA 2: AGCCAGTGGCGATAAGTAGTTTTTTTTCCCGAAACAAGTAAAACTTATCGCCACTGGCT

The binders below were run against His-HSFA2 (Arabidopsis thaliana, UniProt O80982 1-345) (assay: EMSA; HSFA2: 10 mM Tris-HCl pH 7.6, 25 mM KCl, 2.5 mM MgCl2, 1 mM EDTA, 1 mM DTT, 10% glycerol, 25 C 30 min; REF6C: 25 mM Tris-HCl pH 8.0, 100 mM NaCl, 2.5 mM MgCl2). Conditions: protein: recombinant; tags: His (pET32a in Methods); chain copies: 3; label: Cy5 end.
Sequence of His-HSFA2 (O80982 whole entry): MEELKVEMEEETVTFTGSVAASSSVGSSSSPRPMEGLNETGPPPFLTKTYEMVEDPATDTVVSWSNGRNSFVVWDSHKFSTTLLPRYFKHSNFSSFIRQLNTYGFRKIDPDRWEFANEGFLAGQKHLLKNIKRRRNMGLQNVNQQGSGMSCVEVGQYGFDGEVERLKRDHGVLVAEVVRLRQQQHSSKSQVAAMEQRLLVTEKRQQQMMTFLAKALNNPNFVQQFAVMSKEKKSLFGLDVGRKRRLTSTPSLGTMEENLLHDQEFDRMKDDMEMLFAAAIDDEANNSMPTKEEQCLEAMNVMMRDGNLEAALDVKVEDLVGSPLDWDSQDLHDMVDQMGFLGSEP

Binding result, binds:
B1
B2
B3
B4
B5
